Measured values from the supplement of paper PMC9170038.

Test system: MS2 coat protein
Assay: apparent KD of MS2 coat protein; designed switch direction (-1 OFF switch, 1 ON switch): -1; higher = weaker reporter binding
Summary of the method: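 Designed RNA switches were transcribed on Illumina chips by stalled E. coli RNA polymerase and titrated with SNAP-549-labelled MS2 coat protein from 0.7 or 1.5 nM, doubling to 3 µM. Step length ran from 0.8–1.5 h at the lowest concentration to 10–20 min at the highest. The apparent KD is the median over clusters for each design, from curve-fitted normalised cluster fluorescence.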

[1] = Eterna round: R95, input ligand: microRNA oligo, concentration not stated
[2] = input ligand: microRNA oligo, concentration not stated
[3] = Eterna round: R95, input ligand: FMN 200 uM
[4] = Eterna round: R95, input ligand: none

| Sequence | apparent KD of MS2 coat protein [1] | apparent KD of MS2 coat protein (input ligand: FMN 200 uM) | apparent KD of MS2 coat protein (input ligand: none) | also measured |
| --- | --- | --- | --- | --- |
| AAUAACAGAGGAUAUACUAUUUUAUGUGUUUGUUGUUUUAAACAUGAGGAUCACCCAUGUAGAAGGCUGAGUAA [JMF 33] (puzzle: Exclusion 2) | 21.8 nM | – | – | – |
| AAUAACAGAGGAUAUACUAUUUUAUGUGUUUGUUGUUUUAAACAUGAGGAUCACCCAUGUAGAAGGCUGAUUGA [JMF 74] (puzzle: Exclusion 2) | 31.1 nM | – | – | – |
| AAUAACAGAGGAUAUACUGUUUUAUGUGUUUGUUAUUUUGAACAUGAGGAUCACCCAUGUAGAAGGCUGAAUAA [JMF 23] (Eterna round: R96, puzzle: Exclusion 2) | – | 23.9 nM | 25.3 nM | apparent KD of MS2 coat protein [2]: 18.8 nM |
| AAUAACAGAGGAUAUACUGUUUUAUGUGUUUGUUAUUUUGAACAUGAGGAUCACCCAUGUAGAAGGCUGAAUAA [JMF 23] (puzzle: Exclusion 2) | 21.3 nM | – | – | – |
| AAUAACGAGCCGGUCCUCCACAUGAGGAUCACCCAUGUGUUCGUCUUGUAAAGUACUAUCACGAAAGUGAUAGUACA [mod jandersonlee2] (Eterna round: R97, puzzle: Sensor, turn-off variant 1) | – | 746 nM | 858 nM | – |
| AAUAAUAAGGAGGAUAUCGUAUCGGAAACGAUACGAGAAGGCCUAACAUGAGGAUCACCCAUGUUCCUUAAAUA [Mat - Exclusion 6 - Eli Mod - D61] (puzzle: Exclusion 6) | 19.1 nM | – | – | apparent KD of MS2 coat protein [3]: 37.3 nM; apparent KD of MS2 coat protein [4]: 20.1 nM |
| AAUAAUAGCGAGGAUAUCGUAUCGGAAACGAUACGAGAAGGCGUAACAUGAGGAUCACCCAUGUGUCCUCAAAA [Mat - Exclusion 6 - Eli Mod - D7] (Eterna round: R97, puzzle: Exclusion 6) | – | 2520 nM | 146 nM | – |
| AAUAAUGAACGAGCUUUUUACAUGAGGAUCACCCAUGUCCUCUGCUCGUCUUGUCUUGGGCUUUUUUUGGGUUCGGG [-22.1, -44.7 kcal, A 17%] (Eterna round: R97, puzzle: Sensor, turn-off variant 1) | – | 331 nM | 338 nM | – |
| AAUAAUGAGUAGGAUAUCACUAGCGAUAGCUAGUGAGAAGGACUCACAUGAGGAUCACCCAUGUGUUCCAAUAA [Mod3 Ex6/6-A4 by Brourd] (Eterna round: R97, puzzle: Exclusion 6) | – | 195 nM | 50.8 nM | – |
| AAUAAUUGUGACUUGGGUGACAUGAGGAUCACCCAUGUUACAAGCUUGUUGCUCGUCUUAUAAUUAACCCAUGUCAC [LRO Sensor-off var1-24 mod of Stov1-13-A1 by Brourd] (Eterna round: R97, puzzle: Sensor, turn-off variant 1) | – | 21.1 nM | 21.9 nM | – |
| AAUACAAGCGAGAUCCUAAACAUGAGGAUCACCCAUGUGCUCGUCUUAUAAAGUACUAUCACGAAAGUGAUAGUACA [Sensor 3, v1 - 67] (puzzle: Sensor v3, turn-off variant 1) | 157 nM | – | – | apparent KD of MS2 coat protein [3]: 16.7 nM; apparent KD of MS2 coat protein [4]: 16.5 nM |
| AAUACAAGCUAUUGAUCCCACAUGAGGAUCACCCAUGUAGCUGGCCGUGAGACCAGCUUUACGAUAGCUCGUCUUAU [Sensor-V1 #50] (Eterna round: R97, puzzle: Sensor, turn-off variant 1) | – | 261 nM | 263 nM | – |
| AAUACAAGCUAUUGAUCCCACAUGAGGAUCACCCAUGUAGGAGGCCGUGAGACCUCCUUUACGAUAGCUCGUCUUAU [Sensor-V1 #52] (Eterna round: R97, puzzle: Sensor, turn-off variant 1) | – | 211 nM | 208 nM | – |
| AAUACAAGCUAUUGAUCCCACAUGAGGAUCACCCAUGUAUAUGGCGGUGACACCUCCAUGACGAUAGCUCGUCUUAU [Sensor-V1 #58] (Eterna round: R97, puzzle: Sensor, turn-off variant 1) | – | 567 nM | 1360 nM | – |
| AAUACAAGCUAUUGAUCCCACAUGAGGAUCACCCAUGUUCCUGGCCGUGAGACAAGGUUGACAAUAGCUCGUCUUAU [Sensor-V1 #45] (Eterna round: R97, puzzle: Sensor, turn-off variant 1) | – | 285 nM | 299 nM | – |
| AAUAGUUGAGUAGGAUAUGCAUCGACCGGCCGAGCAGAAGGACUCGUGAACUUGAGGAUCACCCAAGUGUCCUCGUUUGCUUGA [Mutated MS2 EX1.16] (Eterna round: R96, puzzle: Exclusion NG 1) | – | 139 nM | 134 nM | apparent KD of MS2 coat protein [2]: 125 nM |
| AAUAUCACAGGAUAUCCGGAUUUGUACAUGAGGAUCACCCAUGUGGUGACGUAGAACUCCGGAGAAGGGUGUCCAG [Eternabot (L2) Solution 89] (Eterna round: R97, puzzle: Exclusion 5) | – | 29 nM | 161 nM | – |
| AAUCCACAUGAGGAUCACCCAUGUGAGGAUAUGAUACUAUGUACUUCGGUACAUAGUAUCAGAAGGCACAGGUC [Ex1-3: 58] (puzzle: Exclusion 1) | 25 nM | – | – | – |

| Sequence | apparent KD of MS2 coat protein [1] | apparent KD of MS2 coat protein (input ligand: FMN 200 uM) | apparent KD of MS2 coat protein (input ligand: none) | also measured |
| --- | --- | --- | --- | --- |
| AAUGAGGGAGGAUAUACAUUCGGCUGUCAACAGCCCUUGGGACAUGAGGAUCACCCAUGUAGAAGGCCCGAUUA [EX2 B.20] (Eterna round: R97, puzzle: Exclusion 2) | – | 365 nM | 38.7 nM | – |
| AAUGGGUGUGUGAGGAUAUACGAUGGCAGUUGCCAGUAGAAGGUACAUGAGGAUCACCCAUGUGUCCAAAAGUG [Aquin] (puzzle: Brourd's mod of Exclusion 4) | 11.9 nM | – | – | – |
| AAUGUCUGAGGAUAUCGUUUUUUGUACAUGAGGAUCACCCAUGUUUUAUUUUGUAUAUUACGAGAAGGCAGUGGAA [JR_E5_Sub088] (puzzle: Exclusion 5) | 22.7 nM | – | – | – |
| AAUGUGUGAGGAUAUUAGUUGUACGUCAAUAGACGUAUAAGUGAGAAGGCACAUGAGGAUCACCCAUGUUCCUG [Omei Ex4 Mod of Mat's R95 mod of Omei v6] (Eterna round: R97, puzzle: Exclusion 4) | – | 109 nM | 24.9 nM | – |
| AAUUAGCAAGCAAGAUCCCACAUGAGGAUCACCCAUGUGCUCGUCUUAUAAGGUACUGUGACGAGAGUCACGGUACC [Mat - Sensor, turn-off var - Eli Mod - D48] (Eterna round: R97, puzzle: Sensor, turn-off variant 1) | – | 51.5 nM | 50.5 nM | – |
| AAUUAGCAAGCGAGAUCUCACAUGAGGAUCACCCAUGUGCUCGUCUUAUAAGGUACUGUGACGAUAGUCACGGUACC [Mat - Sensor, turn-off var - Eli Mod - D39] (Eterna round: R97, puzzle: Sensor, turn-off variant 1) | – | 13.2 nM | 14.8 nM | – |
| AAUUAGUAUGUGAGGAUAUUGACGGAAUGACUUGUUAAGAAGGCACAUGAGGAUCACCCAUGUGGGAAGUCACG [JR_BMEx4_Sub012] (Eterna round: R97, puzzle: Brourd's mod of Exclusion 4) | – | 57.1 nM | 18.1 nM | – |
| AAUUAGUAUGUGAGGAUAUUGACGUAAUGACUGGUUAAGAAGGCACAUGAGGAUCACCCAUGUGGGAAGUCACG [JR_BMEx4_Sub011] (Eterna round: R97, puzzle: Brourd's mod of Exclusion 4) | – | 56.8 nM | 15.2 nM | – |
| AAUUAUUAUUGAGGAUAUCGUAUUGAAAUAAUAUGAGAAGGCGGGAUAAACAUGAGGAUCACCCAUGUGAGCCUGAUGCUUGUG [Ex NG1 #39] (Eterna round: R96, puzzle: Exclusion NG 1) | – | – | – | apparent KD of MS2 coat protein [2]: 13.3 nM |
| AAUUCACAUGAGGAUCACCCAUGUCAGGAUAUGGUUUCACGUGUUUCUUUGCUUGAGGCCAGAAGGGACAGCUA (puzzle: Exclusion 1) | 67.2 nM | – | – | – |
| AAUUCACAUGAGGAUCACCCAUGUCAGGAUAUGGUUUCACUUUUUUCUUUUCUUGAUUCCAGAAGGGACAGCUA (puzzle: Exclusion 1) | 62.6 nM | – | – | – |
| AAUUCGCAAGCGAGAUCCCACAUGAGGAUCACCCAUGUGCUCGUCUUAUAAGGUACUGUGACGAAAGUCACGGUACC [Mat - Sensor, turn-off var - Eli Mod - D85] (Eterna round: R97, puzzle: Sensor, turn-off variant 1) | – | 16.2 nM | 17.1 nM | – |
| AAUUCUAGGGUCAGACGCACAAGCUUUUUGUUCGUUUUAACAUGAGGAUCACCCAUGUCUAGUGGAUCUGAUCGGGC [JL ViennaUCT Isreen mod 9] (puzzle: Sensor v3, turn-off variant 2) | 71.4 nM | – | – | apparent KD of MS2 coat protein [3]: 28.6 nM; apparent KD of MS2 coat protein [4]: 31 nM |
| AAUUUACAUGAGGAUCACCCAUGUGAGGAUAUAUACAAAGAAGUGUUAGUAAGAAUGUAUAGAAGGCGCGUGAU [JR_Exc1_Sub040] (Eterna round: R97, puzzle: Exclusion 1) | – | 71.4 nM | 58.6 nM | – |
| ACAACAAGCUUUUUGAACGUAGAACAUGAAGCUCUAGUCACAUGAGGAUCACCCAUGUCAGCCAGUUAGAUAGGUGA [JR_SV3TOV2_Sub065] (puzzle: Sensor v3, turn-off variant 2) | 49 nM | – | – | apparent KD of MS2 coat protein [3]: 64.5 nM; apparent KD of MS2 coat protein [4]: 51.2 nM |
| ACAACUGUAGGAUAUACUUUCUGGGUAAGCCAUUAUACUGGACAUGAGGAUCACCCAUGUAGAAGGACAGAAAG [Eternabot (Original) Solution 36] (Eterna round: R97, puzzle: Exclusion 2) | – | 29.6 nM | 35.1 nM | – |
| ACAAGCAUUUAUCUUUUCAAAUAUUAUCGUCUUAUAAUUACAUGAGGAUCACCCAUGUAUAGAGGGUGAGAGAUACU [JR_Sensorv2_tov2_Sub552] (Eterna round: R96, puzzle: Sensor v2, turn-off variant 2) | – | 61.1 nM | 58.1 nM | apparent KD of MS2 coat protein [2]: 121 nM |
